Measurements as given in patent publication US7566535B2, “Enhanced oligonucleotide-mediated nucleic acid sequence alteration” (University of Delaware, priority 2002, dated 2009).
In the oligonucleotide strings, read from the 5' end, every base follows the letter of its sugar. An asterisk marks phosphorothioate; unmarked linkages are phosphodiester. Other units and linkages are bracketed, terminal groups are in braces. A string of capitals states the bases alone. d = 2'-deoxy (DNA)

How the values were obtained:
pAURHYG(ins)eGFP = test: In vivo correction of episomal pAURHYG(ins)eGFP in yeast; conditions: for Average colony count on hygromycin plates / hygromycin-resistant colonies per aureobasidin-resistant colony: wild-type LSY678; for Colonies on Hygromycin / Correction Efficiency / Fold: 5 μg oligo
CYC1 gene = CYC1 gene repair in diploid yeast strains, growth on glycerol (YPG); conditions: YMH55; 5 μg oligo
pAURHYG(x)eGFP [1] = test: Hygromycin gene correction in yeast LSY678 with or without trichostatin A; conditions: 5 μg oligo
pAURHYG(x)eGFP [2] = test: Strand bias of hygromycin gene correction in rad1 and rad10 yeast mutants
pAURHYG(rep)eGFP [3] = test: In vivo correction of episomal pAURHYG(rep)eGFP in yeast, hygromycin-resistant colonies; conditions: for Average colony count on hygromycin plates / hygromycin-resistant colonies per aureobasidin-resistant colony: wild-type LSY678; for Colonies on Hygromycin / Correction Efficiency / Fold: 5 μg oligo
pAURHYG(rep)eGFP [4] = test: Correction of pAURHYG(rep)eGFP in yeast LSY678 with or without hydroxyurea; conditions: 5 μg oligo (1.62 μg Hyg10)
[5] = Cells both pre-treated and treated during recovery with 50 μg/mL trichostatin A

B1: HygE3T/74: 74-base single-stranded DNA oligonucleotide, three phosphorothioate linkages at each end, SEQ ID NO: 8 (nucleic acid)
DNA: dC*dT*dC*dGdTdGdCdTdTdTdCdAdGdCdTdTdCdGdAdTdGdTdAdGdGdAdGdGdGdCdGdTdGdGdAdTdAdCdGdTdCdCdTdGdCdGdGdGdTdAdAdAdTdAdGdCdTdGdCdGdCdCdGdAdTdGdGdTdTdTdC*dT*dA*dC
pAURHYG(ins)eGFP; 1.0 μg oligo
  Average colony count on hygromycin plates: 5
  hygromycin-resistant colonies per aureobasidin-resistant colony: 0.03
pAURHYG(ins)eGFP; 2.5 μg oligo
  Average colony count on hygromycin plates: 47
  hygromycin-resistant colonies per aureobasidin-resistant colony: 0.29
pAURHYG(ins)eGFP; 5.0 μg oligo
  Average colony count on hygromycin plates: 199
  hygromycin-resistant colonies per aureobasidin-resistant colony: 1.24
pAURHYG(ins)eGFP; 7.5 μg oligo
  Average colony count on hygromycin plates: 54
  hygromycin-resistant colonies per aureobasidin-resistant colony: 0.34
pAURHYG(ins)eGFP; 10.0 μg oligo
  Average colony count on hygromycin plates: 17
  hygromycin-resistant colonies per aureobasidin-resistant colony: 1.10
pAURHYG(ins)eGFP; Exo1 mutant
  Colonies on Hygromycin: 2
  Correction Efficiency: 0.01
  Fold: 0x
pAURHYG(ins)eGFP; mre11 mutant
  Colonies on Hygromycin: 3
  Correction Efficiency: 0.09
  Fold: 0.03x
pAURHYG(ins)eGFP; msh2 mutant
  Colonies on Hygromycin: 0
  Correction Efficiency: 0
  Fold: 0x
pAURHYG(ins)eGFP; msh3 mutant
  Colonies on Hygromycin: 1
  Correction Efficiency: 0.05
  Fold: 0.02x
pAURHYG(ins)eGFP; msh6 mutant
  Colonies on Hygromycin: 0
  Correction Efficiency: 0
  Fold: 0x
pAURHYG(ins)eGFP; pms1 mutant
  Colonies on Hygromycin: 111
  Correction Efficiency: 18.5
  Fold: 5.35x
pAURHYG(ins)eGFP; rad1 mutant
  Colonies on Hygromycin: 52
  Correction Efficiency: 0.59
  Fold: 0.17x
pAURHYG(ins)eGFP; rad2 mutant
  Colonies on Hygromycin: 113
  Correction Efficiency: 1.79
  Fold: 0.52x
pAURHYG(ins)eGFP; rad10 mutant
  Colonies on Hygromycin: 14
  Correction Efficiency: 0.14
  Fold: 0.04x
pAURHYG(ins)eGFP; rad23 mutant
  Colonies on Hygromycin: 1
  Correction Efficiency: 0.01
  Fold: 0x
pAURHYG(ins)eGFP; rad50 mutant
  Colonies on Hygromycin: 1
  Correction Efficiency: 0.06
  Fold: 0.02x
pAURHYG(ins)eGFP; rad51/52 mutant
  Colonies on Hygromycin: 3
  Correction Efficiency: 0.3
  Fold: 0.01x
pAURHYG(ins)eGFP; rad51 mutant
  Colonies on Hygromycin: 19
  Correction Efficiency: 0.59
  Fold: 0.17x
pAURHYG(ins)eGFP; rad52 mutant
  Colonies on Hygromycin: 31
  Correction Efficiency: 0.86
  Fold: 0.24x
pAURHYG(ins)eGFP; rad54 mutant
  Colonies on Hygromycin: 0
  Correction Efficiency: 0
  Fold: 0x
pAURHYG(ins)eGFP; rad55 mutant
  Colonies on Hygromycin: 0
  Correction Efficiency: 0
  Fold: 0X
pAURHYG(ins)eGFP; rad57 mutant
  Colonies on Hygromycin: 34
  Correction Efficiency: 0.33
  Fold: 0.10x
pAURHYG(ins)eGFP; rad59 mutant
  Colonies on Hygromycin: 116
  Correction Efficiency: 2.47
  Fold: 0.71x
pAURHYG(ins)eGFP; wild type
  Colonies on Hygromycin: 256
  Correction Efficiency: 3.46
  Fold: 1x
pAURHYG(ins)eGFP; xrs2 mutant
  Colonies on Hygromycin: 6
  Correction Efficiency: 0.04
  Fold: 0.01x
CYC1 gene
  C.E.: 0 ×10^−4
  No. of YPG Plate Colonies: 0
pAURHYG(x)eGFP [1]; [5]
  Correction Efficiency: 2.05 1/10^5
  Hyg^r: 230
pAURHYG(x)eGFP [1]; Cells treated during recovery with 50 μg/mL trichostatin A
  Correction Efficiency: 0.34 1/10^5
pAURHYG(x)eGFP [1]; No treatment
  Correction Efficiency: 0.16 1/10^5
pAURHYG(x)eGFP [2]; rad1 mutant
  Colonies on Hygromycin: 3
pAURHYG(x)eGFP [2]; rad10 mutant
  Colonies on Hygromycin: 2
pAURHYG(rep)eGFP [3]; 1.0 μg oligo
  Average colony count on hygromycin plates: 5
  hygromycin-resistant colonies per aureobasidin-resistant colony: 0.03
pAURHYG(rep)eGFP [3]; 2.5 μg oligo
  Average colony count on hygromycin plates: 99
  hygromycin-resistant colonies per aureobasidin-resistant colony: 0.61
pAURHYG(rep)eGFP [3]; 5.0 μg oligo
  Average colony count on hygromycin plates: 204
  hygromycin-resistant colonies per aureobasidin-resistant colony: 1.26
pAURHYG(rep)eGFP [3]; 7.5 μg oligo
  Average colony count on hygromycin plates: 69
  hygromycin-resistant colonies per aureobasidin-resistant colony: 0.42
pAURHYG(rep)eGFP [3]; 10.0 μg oligo
  Average colony count on hygromycin plates: 19
  hygromycin-resistant colonies per aureobasidin-resistant colony: 0.12
pAURHYG(rep)eGFP [3]; Msh2 mutant
  Colonies on Hygromycin: 0
  Correction Efficiency: 0
  Fold: 0x
pAURHYG(rep)eGFP [3]; Msh3 mutant
  Colonies on Hygromycin: 0
  Correction Efficiency: 0
  Fold: 0x
pAURHYG(rep)eGFP [3]; Msh6 mutant
  Colonies on Hygromycin: 1,270
  Correction Efficiency: 2.35
  Fold: 0.55x
pAURHYG(rep)eGFP [3]; Pms1 mutant
  Colonies on Hygromycin: 2,280
  Correction Efficiency: 114
  Fold: 26.76x
pAURHYG(rep)eGFP [3]; Rad1 mutant
  Colonies on Hygromycin: 1,380
  Correction Efficiency: 8.52
  Fold: 2.00x
pAURHYG(rep)eGFP [3]; Rad2 mutant
  Colonies on Hygromycin: 919
  Correction Efficiency: 3.78
  Fold: 0.89x
pAURHYG(rep)eGFP [3]; exo1 mutant
  Colonies on Hygromycin: 486
  Correction Efficiency: 3.92
  Fold: 0.92x
pAURHYG(rep)eGFP [3]; mre11 mutant
  Colonies on Hygromycin: 12
  Correction Efficiency: 0.63
  Fold: 0.15x
pAURHYG(rep)eGFP [3]; rad10 mutant
  Colonies on Hygromycin: 54
  Correction Efficiency: 0.15
  Fold: 0.04x
pAURHYG(rep)eGFP [3]; rad23 mutant
  Colonies on Hygromycin: 66
  Correction Efficiency: 0.44
  Fold: 0.10x
pAURHYG(rep)eGFP [3]; rad50 mutant
  Colonies on Hygromycin: 336
  Correction Efficiency: 2.09
  Fold: 0.49x
pAURHYG(rep)eGFP [3]; rad51/52 mutant
  Colonies on Hygromycin: 212
  Correction Efficiency: 5.45
  Fold: 1.28x
pAURHYG(rep)eGFP [3]; rad51 mutant
  Colonies on Hygromycin: 104
  Correction Efficiency: 0.62
  Fold: 0.14x
pAURHYG(rep)eGFP [3]; rad52 mutant
  Colonies on Hygromycin: 266
  Correction Efficiency: 3.29
  Fold: 0.77x
pAURHYG(rep)eGFP [3]; rad54 mutant
  Colonies on Hygromycin: 2
  Correction Efficiency: 0.02
  Fold: 0x
pAURHYG(rep)eGFP [3]; rad55 mutant
  Colonies on Hygromycin: 0
  Correction Efficiency: 0
  Fold: 0x
pAURHYG(rep)eGFP [3]; rad57 mutant
  Colonies on Hygromycin: 984
  Correction Efficiency: 17.26
  Fold: 4.05x
pAURHYG(rep)eGFP [3]; rad59 mutant
  Colonies on Hygromycin: 1,198
  Correction Efficiency: 3.06
  Fold: 0.71x
pAURHYG(rep)eGFP [3]; wild type
  Colonies on Hygromycin: 1,218
  Correction Efficiency: 4.26
  Fold: 1x
pAURHYG(rep)eGFP [3]; xrs2 mutant
  Colonies on Hygromycin: 29
  Correction Efficiency: 0.66
  Fold: 0.15x
pAURHYG(rep)eGFP [4]; 20 mM hydroxyurea 4 h pre-treatment, growth time 10 min
  Correction Efficiency: 3.1 hygromycin resistant colonies
pAURHYG(rep)eGFP [4]; 20 mM hydroxyurea 4 h pre-treatment, growth time 20 min
  Correction Efficiency: 4.9 hygromycin resistant colonies
pAURHYG(rep)eGFP [4]; 20 mM hydroxyurea 4 h pre-treatment, growth time 40 min
  Correction Efficiency: 9.5 hygromycin resistant colonies
pAURHYG(rep)eGFP [4]; 20 mM hydroxyurea 4 h pre-treatment, growth time 60 min
  Correction Efficiency: 7.8 hygromycin resistant colonies
pAURHYG(rep)eGFP [4]; 20 mM hydroxyurea 4 h pre-treatment, growth time 90 min
  Correction Efficiency: 22.4 hygromycin resistant colonies
pAURHYG(rep)eGFP [4]; no hydroxyurea, growth time 10 min
  Correction Efficiency: 0.15 hygromycin resistant colonies
pAURHYG(rep)eGFP [4]; no hydroxyurea, growth time 20 min
  Correction Efficiency: 2.9 hygromycin resistant colonies
pAURHYG(rep)eGFP [4]; no hydroxyurea, growth time 40 min
  Correction Efficiency: 3.4 hygromycin resistant colonies
pAURHYG(rep)eGFP [4]; no hydroxyurea, growth time 60 min
  Correction Efficiency: 2.32 hygromycin resistant colonies
pAURHYG(rep)eGFP [4]; no hydroxyurea, growth time 90 min
  Correction Efficiency: 0.56 hygromycin resistant colonies
